# B1: 50 bp matS DNA (dsDNA)
# DNA 1: CAGAGTTAATCAGAACGGTGACAATGTCACAAAGAAAAAGAACCTGTGCG
# DNA 2: CGCACAGGTTCTTTTTCTTTGTGACATTGTCACCGTTCTGATTAACTCTG
# B2: 50 bp nonspecific DNA (dsDNA)
# DNA 1: CAGAGTTAATCACAACGGTTCTCGATCATCAAAGAAAAACAAGCTGTGCG
# DNA 2: CGCACAGCTTGTTTTTCTTTGATGATCGAGAACCGTTGTGATTAACTCTG
# Experiments:
# MatP (MatPΔ18C) = target: T1, MatP (MatPΔ18C) (Escherichia coli, UniProt P0A8N0 1-132); assay: native MS; Native PAGE: 50 mM HEPES pH 7.5, 100 mM NaCl, 1 mM MgCl2, 1 mM DTT, 10% glycerol, on ice 30 min; FCS: 20 mM Tris-HCl pH 7.5, 50 mM NaCl, 0.3 mg/mL BSA, 2 mM DTT, 0.05% Tween-20, 22 °C; nMS buffer not given in the material; settings: protein: recombinant; tags: C-terminal 6xHis; chain copies: 2; blunt
# T1 sequence: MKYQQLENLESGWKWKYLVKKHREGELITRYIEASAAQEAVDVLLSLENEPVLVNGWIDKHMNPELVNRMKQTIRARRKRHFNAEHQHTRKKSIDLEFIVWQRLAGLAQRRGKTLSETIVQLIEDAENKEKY
# MatP4E = target: T2, MatP4E (Escherichia coli, UniProt P0A8N0 1-132, K71E;Q72E;R75E;R77E); assay: EMSA (native PAGE); 1 mM Mg2+; Native PAGE: 50 mM HEPES pH 7.5, 100 mM NaCl, 1 mM MgCl2, 1 mM DTT, 10% glycerol, on ice 30 min; FCS: 20 mM Tris-HCl pH 7.5, 50 mM NaCl, 0.3 mg/mL BSA, 2 mM DTT, 0.05% Tween-20, 22 °C; nMS buffer not given in the material; settings: protein: recombinant; tags: C-terminal 6xHis; chain copies: 2; blunt
# T2 sequence: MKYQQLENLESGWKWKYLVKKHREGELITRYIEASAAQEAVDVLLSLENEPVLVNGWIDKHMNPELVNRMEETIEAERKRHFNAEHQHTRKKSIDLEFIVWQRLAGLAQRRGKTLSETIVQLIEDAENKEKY
Binder,binding result (MatP (MatPΔ18C)),binding result (MatP4E)
B1,binds,no binding
B2,,no binding
